Experimental data reported in the supplement of paper PMC9170038.

Test system: MS2 coat protein
Test: apparent KD of MS2 coat protein; designed switch direction (-1 OFF switch, 1 ON switch): -1; higher = weaker reporter binding
Outline: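 On Illumina chips, designed RNA switches with common flanks were made by stalled E. coli RNA polymerase. Titrations with SNAP-549-labelled MS2 coat protein, doubling from 0.7 or 1.5 nM to 3 µM, were done with no input, with 200 uM small-molecule ligand, or with an oligonucleotide input. Apparent KD is the median per design over clusters, from curve fits of normalised cluster fluorescence.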

[1] = Eterna round: R95, input ligand: microRNA oligo, concentration not stated
[2] = Eterna round: R95, input ligand: FMN 200 uM
[3] = Eterna round: R95, input ligand: none
[4] = input ligand: microRNA oligo, concentration not stated

Sequence | apparent KD of MS2 coat protein (input ligand: FMN 200 uM) [µM] | apparent KD of MS2 coat protein (input ligand: none) [µM] | apparent KD of MS2 coat protein [1] [µM] | apparent KD of MS2 coat protein [2] [µM] | apparent KD of MS2 coat protein [3] [µM] | apparent KD of MS2 coat protein [4] [µM]
AGAUCACAUGAGGAUCACCCAUGUCAGGAUAUCGUCACUGGAGCUGCGGCUCCAGUGACGAGAAGGGAUAAUUA [E1/4-A3] (Eterna round: R97, puzzle: Exclusion 1) | 0.0924 | 0.052 | – | – | – | –
GUGCAGCUAGGAUAUACCGAAUGGGCCGAGCCGAAAAUAUUACAUGAGGAUCACCCAUGUAGAAGGAGCCAAUU [Eternabot (Original) Solution 22] (Eterna round: R97, puzzle: Exclusion 2) | 0.0645 | 0.0347 | – | – | – | –
GAAUUAGUAGGAUAUACAUGAGGAUCACCCAUGUCUCAAACCAUGUACAGGAGAGGCUGUAGAAGGACUGAACA [Eternabot (Original) Solution 19] (Eterna round: R97, puzzle: Exclusion 3) | 0.036 | 0.0317 | – | – | – | –
GCACGGUAAGUGAGGAUAUACCUCUGGAUACAGAGGUAGAAGGCACAUGAGGAUCACCCAUGUCUCAGCCGUGC [Fiskers BMX 4 - 87] (puzzle: Brourd's mod of Exclusion 4) | – | – | 0.0168 | – | – | –
CUAGAUCUUCGGAUCUAGUACAUGAGGAUCACCCAUGUGACGAGUUGAUCCUCAAACAAGCUUUUUGCUCGUCUUAU [Sensor v3 - Turn-off variant 1 - 17] (puzzle: Sensor v3, turn-off variant 1) | – | – | 0.016 | 0.0199 | 0.0221 | –
AGAGAGUCAGGAUAUGACGAAGAGAACAUGAGGAUCACCCAUGUUGCUUCGUUUUUAUCGUCAGAAGGGACGAACU [JR_Ex5_Sub088] (Eterna round: R97, puzzle: Exclusion 5) | 0.0138 | 0.0139 | – | – | – | –
UUUGUUUUGCAAGGAUAUGUUUAAUUUUAUUUUCCUUACACAUGAGGAUCACCCAUGUUAUACUUACAGAAGGUGCGUAAUUUG [Excl-NG2-LRO04] (Eterna round: R96, puzzle: Exclusion NG 2) | – | – | – | – | – | 0.165
AAUUUCGCGGCCCGAUGACUGCGUACUGACAGUGAGCUCACAUGAGGAUCACCCAUGUUUUUUGCUCGUAAAUCAGA [Quarat] (Eterna round: R96, puzzle: Sensor v2, turn-off variant 2) | 0.0136 | 0.0161 | – | – | – | 0.0123
UAUAUGUCAGGAUAUUAGUAGUAAAUGAAUAAAAUUAUUACUGAGAAGGGACAUGAGGAUCACCCAUGUGCUUC [Mat - Exclusion 4 - Eli Mod - D25] (Eterna round: R97, puzzle: Exclusion 4) | 0.224 | 0.0279 | – | – | – | –
GAUUGACAUGAGGAUCACCCAUGUGAGGAUAUCGUCUGGUACGUGUUGGCUGGCAUCUCGAGAAGGCGCAUAGG [Exclusion 1 V56] (puzzle: Exclusion 1) | – | – | 0.0594 | 0.103 | 0.0764 | –
CAUGAUCUUCGGAUCAUGUACAUGAGGAUCACCCAUGUUACGAGCAGAUUUUCAUACAAGCUUUUUGCUCGUCUUAU [Sensor v3 - Turn-off variant 1 - 31] (puzzle: Sensor v3, turn-off variant 1) | – | – | 0.0673 | 0.0276 | 0.0287 | –
UAUAUAUAGUAAGGAUAUGUAAUUAUUUUAUAAACAGAAGGUACUGACAUGAGGAUCACCCAUGUUUUAGUGUGGGCAUGUAGA [JMF's solution 5] (Eterna round: R96, puzzle: Exclusion NG 1) | – | – | – | – | – | 0.0657
UAAAAGUGAGGAUAUACAUUAAGGUAAGUCCGGAUGCGAAGACAUGAGGAUCACCCAUGUAGAAGGCACACAAA [Aredge] (puzzle: Exclusion 2) | – | – | 0.0321 | – | – | –
CAUGGCUACUAGGAUAUGUCGCGAUGGACGCAAACAGAAGGAGUAACAUGAGGAUCACCCAUGUUGUGACCUAA [Mabiaris] (Eterna round: R97, puzzle: Exclusion 6) | 0.2 | 0.0289 | – | – | – | –
GCACAGGCAGGAUAUACAUGAGGAUCACCCAUGUGAUCCCUUAAGUACAAAAGUACUAGUAGAAGGGCCUGUGC [Omei Ex3 Model Bachelor's Dilema v47] (Eterna round: R97, puzzle: Exclusion 3) | 0.646 | 1.21 | – | – | – | –
ACAUGAGGAUCACCCAUGUGAAAACAAUGGCUGACUUUGAGAUAGGAUAUAUGUGCAUAUCAAACAUAGAAGGGUCAUUACUGG [Deportation 90 - Jieux - Exclusion NG 3] (Eterna round: R96, puzzle: Exclusion NG 3) | 0.0414 | 0.0472 | – | – | – | 0.0259
CCGGUAGUAGUCAGGAUAUUCGAUUUUCACCAAGCGAAGAAGGGACAUGAGGAUCACCCAUGUUAGGUGAACGG [Eternabot (L2) Solution 68] (Eterna round: R97, puzzle: Brourd's mod of Exclusion 4) | 0.196 | 0.0376 | – | – | – | –

Sequence | apparent KD of MS2 coat protein (input ligand: FMN 200 uM) [µM] | apparent KD of MS2 coat protein (input ligand: none) [µM] | apparent KD of MS2 coat protein [1] [µM] | apparent KD of MS2 coat protein [2] [µM] | apparent KD of MS2 coat protein [3] [µM] | apparent KD of MS2 coat protein [4] [µM]
AGUAGUAGUGUCCGAUCCUACAUGAGGAUCACCCAUGUAGCUAGACGUGCACGCGAUGCUCGUCAGACUACCAGAUG [salish99_TOv1_r3_046] (puzzle: Sensor v3, turn-off variant 1) | – | – | 0.0887 | 0.0837 | 0.129 | –
CGAUGAGGAGUGAGGAUAUCGUGUUCGAAAGAACGUGAGAAGGCACAUGAGGAUCACCCAUGUGAUUCUUGUCG [Omei Ex4B A18] (Eterna round: R97, puzzle: Brourd's mod of Exclusion 4) | 0.0776 | 0.0222 | – | – | – | –
GGCACACAUGAGGAUCACCCAUGUGAGGAUAUUAGGCGAUCGUCGAAAGACGAUAGCCUGAGAAGGCACAUGCC [Eli x1 4.12] (Eterna round: R97, puzzle: Exclusion 1) | 0.0922 | 0.0198 | – | – | – | –
GCAGCGUAUGUAGGAUAUCGGUCAGUUUCUGAUCGAGAAGGACAUGAGGAUCACCCAUGUAUUAUCAUGCGUGAGCAUGGCUGC [JL ENG1 3.71] (Eterna round: R96, puzzle: Exclusion NG 1) | 0.499 | 0.152 | – | – | – | 0.115
GGGUGUGAAGGAUAUACAUGAGGAUCACCCAUGUGAGAGGAGAAUGUUGAGGAGGUUGGUAGAAGGUCAGGAGG [JR_Exclusion3_Sub010] (puzzle: Exclusion 3) | – | – | 0.0791 | – | – | –
AAGAAACAUGAGGAUCACCCAUGUGAGGAUAUGAAGAAGAAAAGAAAAGAAAGAAGAAUCAGAAGGCACAAAGG [salish99-ex1_r3_046] (puzzle: Exclusion 1) | – | – | 0.0258 | 0.0671 | 0.0484 | –
CAUGAUUGACGAGGAUAUUGUUCUACAUCACGACGAGAAGGCGUCUGUCACAUGAGGAUCACCCAUGUGAGUCUGGUGAAUGAG [Ex NG1 #82] (Eterna round: R96, puzzle: Exclusion NG 1) | 0.031 | 0.0218 | – | – | – | 0.0172
UUUAUGUCAGGAUAUGAUUAGAUCUACUUCGGUAGAUCUAAUCAGAAGGGACAUGAGGAUCACCCAUGUAGUUU [Ex4 - 3 - 13] (Eterna round: R96, puzzle: Exclusion 4) | 0.671 | 0.18 | – | – | – | 0.137
GCAGCACAUGUAGGAUAUCUGCACGUUUAGUGCAGAGAAGGACAUGAGGAUCACCCAUGUAAUUAAGAUCAAUUAUUAAGCUGC [ENG1/3-C2] (Eterna round: R96, puzzle: Exclusion NG 1) | 0.178 | 0.0442 | – | – | – | 0.0321
GUCCGGCAUGUAGGAUAUGGAUCCGAUUAGGAUUUAGAAGGACAUGAGGAUCACCCAUGUGCAUUUAAUUAGUCAUUACCGGAU [EXclNG1-LROPPY05] (Eterna round: R96, puzzle: Exclusion NG 1) | 0.0174 | 0.0179 | – | – | – | 0.0136
GGGUCACAUGAGGAUCACCCAUGUGAGGAUAUGAUACUAUGUACUUCGGUACAUAGUAUCAGAAGGCACAUCCC [Ex1-3: 17] (puzzle: Exclusion 1) | – | – | 0.0186 | – | – | –
AACAUGAGGAUCACCCAUGUGGGUCCUCUGUGGCAGCGAGACGAGGAUAUCAAUGGAGGGCCAGGUGAGAAGGUGUACGAUCAU [Eternabot solution 28] (Eterna round: R96, puzzle: Exclusion NG 3) | 0.183 | 0.386 | – | – | – | 0.192
UAACCACAUGAGGAUCACCCAUGUGAGGAUAUGUCCAUAUUCGGCAAAUCGGAUAUGGACAGAAGGCACACCGG [JR_Exclusion1_Sub010] (puzzle: Exclusion 1) | – | – | 0.0407 | – | – | –
UCCUGGCGAGGAUAUACAAAGAUUUUUUCGUUUUGUUUCGAACAUGAGGAUCACCCAUGUAGAAGGUGCUGCUG [JR_Ex2_Sub015] (Eterna round: R97, puzzle: Exclusion 2) | 0.0464 | 0.0467 | – | – | – | –
UAAUAAAGUGUGAGGAUAUGCUGGUCGAUAGAUCAGCAGAAGGCACAUGAGGAUCACCCAUGUAAUAUAUUUUA [Mat - Exclusion 4 - JL Mod - D46] (puzzle: Brourd's mod of Exclusion 4) | – | – | 0.0543 | – | – | –
CCGCUCCGUGUAGGAUAUCGCUGUACCCUGCGGCGAGAAGGACAUGAGGAUCACCCAUGUAUGUUAUUAUCACGCGUGGCGCAC [Design 72] (Eterna round: R96, puzzle: Exclusion NG 1) | 0.016 | 0.0164 | – | – | – | 0.0124
UCACCGCAAGGAUAUACUUGCGGUGAUGCUCGAAACUUUCUACUUGAGGAUCACCCAAGUAGAAGGUGCGGUGA [jl-ex2.4.68 ViennaUCT mod] (Eterna round: R97, puzzle: Exclusion 2) | 0.0121 | 0.0131 | – | – | – | –
